According to patent US20050028229A1 (published 2005):

Tests used:
[1] = molecular target: T1, purified human β-hemoglobin (human, UniProt P68871 2-147, heme-bound; carboxy (CO) form in interaction studies, oxy form in stability studies); assay: gel-filtration chromatography of equimolar mixtures
T1 construct: also called CO-β-hemoglobin; oxy-β-hemoglobin
Excerpt: Duplicate strips were stained with benzidine to identify heme-containing proteins, and/or with Ponceau S to stain all proteins.

[2] = molecular target: T2, purified human α-hemoglobin (human, UniProt P69905 2-142, heme-bound; carboxy (CO) form in interaction studies, oxy form in stability studies); assay: gel filtration at various concentrations of AHSP and α-hemoglobin (data not shown)
T2 construct: Holo-protein with heme; also called CO-α-hemoglobin; carboxy (CO)-α-hemoglobin
T2 sequence (P69905 2-142 limits assumed): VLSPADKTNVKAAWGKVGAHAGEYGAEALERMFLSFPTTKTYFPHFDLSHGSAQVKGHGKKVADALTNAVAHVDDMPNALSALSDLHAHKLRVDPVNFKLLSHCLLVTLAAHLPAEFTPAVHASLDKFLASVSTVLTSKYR

[3] = molecular target: T2, purified human α-hemoglobin; assay: method not stated; told as 'discussed previously'

T1 sequence (P68871 2-147 limits assumed): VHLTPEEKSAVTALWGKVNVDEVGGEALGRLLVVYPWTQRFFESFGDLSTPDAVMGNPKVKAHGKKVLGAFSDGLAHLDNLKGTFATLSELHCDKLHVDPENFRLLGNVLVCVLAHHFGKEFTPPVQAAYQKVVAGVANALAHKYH

B1: recombinant human AHSP (Alpha Hemoglobin Stabilizing Protein) (other, UniProt Q9NZD4 1-102, looked up)
chain: MALLKANKDLISAGLKEFSVLLNQQVFNDPLVSEEDMVTVVEDWMNFYINYYRQQVTGEPQERDKALQELRQELNTLANPFLAKYRDFLKSHELPSHPPPSS
notes: species not restated there; also called EDRF; Erythroid Differentiation Related Factor
binding result [1]: no binding
Kd [2]: ≤ 500 nM
Kd [3]: ~100 nM
